Measured values published in patent US5763571A, “Inhibiting protein interactions” (The General Hospital Corporation, priority 1995, dated 1998).

Columns and labels:
GAP = molecular target: T1, GAP (Homo sapiens, UniProt P20936); conditions: Schaber et al. 1989; cited from earlier work
T1 sequence (P20936 1-1047): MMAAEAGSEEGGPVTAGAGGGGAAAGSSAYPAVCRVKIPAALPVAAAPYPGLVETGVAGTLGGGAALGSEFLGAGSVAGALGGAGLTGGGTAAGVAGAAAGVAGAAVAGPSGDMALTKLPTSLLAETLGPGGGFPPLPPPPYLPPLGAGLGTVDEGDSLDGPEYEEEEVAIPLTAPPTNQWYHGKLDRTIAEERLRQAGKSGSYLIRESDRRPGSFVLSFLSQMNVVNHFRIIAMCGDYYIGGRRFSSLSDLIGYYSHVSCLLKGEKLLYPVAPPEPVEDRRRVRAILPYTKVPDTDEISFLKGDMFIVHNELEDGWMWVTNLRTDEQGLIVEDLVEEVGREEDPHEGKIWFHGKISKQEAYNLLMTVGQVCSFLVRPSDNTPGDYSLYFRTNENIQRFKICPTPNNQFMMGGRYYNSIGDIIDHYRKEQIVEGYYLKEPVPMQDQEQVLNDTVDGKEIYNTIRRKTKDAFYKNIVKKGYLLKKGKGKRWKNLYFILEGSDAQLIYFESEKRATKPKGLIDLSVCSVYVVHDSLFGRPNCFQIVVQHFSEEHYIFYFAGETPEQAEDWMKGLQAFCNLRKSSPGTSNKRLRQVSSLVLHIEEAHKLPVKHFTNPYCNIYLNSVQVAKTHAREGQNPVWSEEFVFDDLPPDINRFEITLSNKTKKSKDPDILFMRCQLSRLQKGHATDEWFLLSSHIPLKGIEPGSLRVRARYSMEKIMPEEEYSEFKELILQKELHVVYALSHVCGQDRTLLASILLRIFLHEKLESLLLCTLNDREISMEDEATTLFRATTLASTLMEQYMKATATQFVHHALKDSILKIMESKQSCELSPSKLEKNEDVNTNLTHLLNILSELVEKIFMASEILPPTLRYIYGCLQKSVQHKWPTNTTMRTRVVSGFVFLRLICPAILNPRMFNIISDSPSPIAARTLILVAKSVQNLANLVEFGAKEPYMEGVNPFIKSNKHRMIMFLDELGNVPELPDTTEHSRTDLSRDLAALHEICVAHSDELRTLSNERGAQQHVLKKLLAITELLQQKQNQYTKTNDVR

[1] = molecular target: T2, complex formation between Ras-GTP and GST-Raf(1-257) (Homo sapiens, UniProt P01112+P04049); assay: Inhibition of Ras/Raf co-precipitation by synthetic peptides (contact epitope scanning); format: binding
T2 construct: 6xHis (6XH) (C); made in house; host or cells: E. coli

Ras-GTP = molecular target: T3, Ras-GTP (Homo sapiens, UniProt P01112); assay: Comparative co-precipitation of Ras-GTP-γ-32P by GST-Raf proteins; format: binding; conditions: 10 pmol GST-Raf protein, single concentration
T3 construct: made in house; host or cells: E. coli

GTPγS-loaded V12GrasH = assay: In vitro direct binding of Ras to immobilized GST-Raf (immunoblot); conditions: immobilized on glutathione agarose, 6 hours 4° C., pan-Ras immunoblot
Experimental: In vitro direct binding experiments were carried out as follows. […] After 6 hours of tumbling at 4° C., the glutathione agarose beads were washed and analyzed for the binding of Ras peptide by sodium dodecyl sulfate-polyacrylamide gel electrophoresis (SDS-PAGE), followed by immunoblotting using a pan-Ras monoclonal antibody-2 (oncogene Science).
The DNA sequences encoding Raf1 amino acid residues 1-257 were generated by the polymerase chain reaction (PCR), using as template the plasmids RSV-C4 and RSV-PM17 (Bruder, J. T., Heidecker, G. & Rapp, U.R. Genes Dev. 6, 545-556 (1992)), which encode the wild-type and C168 →S mutant sequences, respectively. The c-DNA were inserted into pGEX-KG (Guan, K. L. and Dixon J. E., Anal Biochem. 192, 262-267 (1991)) at the EcoR1 and Sall sites, and sequenced to confirm the mutation and proper in-frame insertion. […] About 50% of the recombinant peptides were recovered as full-length fusion proteins. […] The beads were washed 4×and resuspended in buffer A as a 50% suspension. […] Following transfer to polyvinylidene difluoride (PVDF) membrane, the membrane was immunoblotted using pan-Ras monoclonal antibody-2 (Oncogene Science) and detected using the enhanced chemiluminescence technique (Amersham).

[2] = molecular target: T4, Ras-GAP stimulation of c-rasH GTPase (Homo sapiens, UniProt P01112); assay: Inhibition of Ras-GAP stimulation of c-rasH GTPase; format: biochemical; conditions: added at a concentration nearly equal to Ras-GAP
T4 construct: made in house; host or cells: Sf9 (baculovirus)
Experimental: The GTPase activity was estimated from the γ^32 P-GTP remaining bound to c-rasH after filtration.
In these experiments, baculoviral recombinant c-rasH was expressed and purified from the membrane pellet of Sf9 cells as described for the baculoviral membrane V12GrasH above. The c-rasH was charged with γ^32 P-GTP by combining 0.1 ml of c-rasH (approximately 10 μg/ml) in Ras storage buffer with 0.3 ml of 60 mM TrisCl, pH 7.5, 5 mM EDTA, 0.7 mg/ml BSA, 1.5 mM DTT, 4 mM ATP, 0.142 μM γ^32 P-GTP (4-6 ×10^5 cpm/pmole) on ice. After 1 hour, 50 μl of 135 mM MgCl2 was added. Loading of c-rasH with α^32 P-GTP was carried out under the same conditions; the α^32 P-GTP-c-rasHwas separated from unbound nucleotide by gel filtration (PD-10) in 25 mM TrisCl, pH 7.5, 5 mM MgCl2, 3 mM ATP, 1 mM DTT, and stored on ice. Baculoviral recombinant, full-length human GAP protein was extracted from Sf9 cells by homogenization in 25 mM TrisCl pH 7.5, 1 mM EGTA, 5 mM MgCl2, 1 mM DTT (GAP buffer) and protease inhibitors. […] GAP was detected using a radiolabeled Ras peptide in a filter binding assay. […] The mixture was filtered through a BA85 nitrocellulose membrane, washed 3×with 4 ml of stop solution, and the filters analyzed for retained ^32 P-labeled nucleotide.

| Complex formation with Ras-GTP-γ-32P by co-precipitation (in words) (Ras-GTP) | Substance | Competition of Ras/GAP interaction (in words), previous study (GAP) | other results |
| --- | --- | --- | --- |
|  | 31-43: Ras peptide of a previous study (Schaber et al.) (EYDPTIEDSYRKQ; UniProt P01112 31-43, looked up, fragment) | did not compete at all |  |
|  | 96-112 peptide: acetylated, C-terminal amide peptide of c-Raf-1 residues 96-112 (Ac-CAVFRLLHEHKGKKARL-NH2) |  | Inhibition of Ras-Raf association by peptide (in words) [1]: little inhibition |
| complexed as well with Ras-GTP | GST-Raf(1-131): GST fusion of c-Raf-1 residues 1-131, unstable |  |  |
|  | GST-Raf(1-257, C168 →S): mutant fragment in which serine replaces cysteine at position 168 |  | Binding of GTPγS-V12GrasH (in words) (GTPγS-loaded V12GrasH): significantly lower amounts of Ras are retained; Inhibition of Ras-GAP stimulation of Ras GTPase (in words) [2]: significantly less inhibition |
| complexed as well with Ras-GTP | GST-Raf(51-149): GST fusion of c-Raf-1 residues 51-149 (SEQ ID NO:7) |  |  |
|  | Ras 23-37: Ras peptide of a previous study (Schaber et al.) (LIQNHFVDEYDPTIE; UniProt P01112 23-37, looked up, fragment) | did not compete at all |  |
